Reference: patent US20020045591A1 (published 2002)
Numbering of substitutions follows the chain as printed. Each block holds one binder with its values, some of them ahead of it.

How the values were obtained:
HA-tagged LEF-1 = test: cell-based or functional assay
[1] = target: T1, Endogenous β-catenin of SW480 human colon carcinoma cells (human, UniProt P35222 2-781); test: double immunofluorescence, transfected SW480 cells
T1 construct: whole, on cells
T1 sequence (looked up): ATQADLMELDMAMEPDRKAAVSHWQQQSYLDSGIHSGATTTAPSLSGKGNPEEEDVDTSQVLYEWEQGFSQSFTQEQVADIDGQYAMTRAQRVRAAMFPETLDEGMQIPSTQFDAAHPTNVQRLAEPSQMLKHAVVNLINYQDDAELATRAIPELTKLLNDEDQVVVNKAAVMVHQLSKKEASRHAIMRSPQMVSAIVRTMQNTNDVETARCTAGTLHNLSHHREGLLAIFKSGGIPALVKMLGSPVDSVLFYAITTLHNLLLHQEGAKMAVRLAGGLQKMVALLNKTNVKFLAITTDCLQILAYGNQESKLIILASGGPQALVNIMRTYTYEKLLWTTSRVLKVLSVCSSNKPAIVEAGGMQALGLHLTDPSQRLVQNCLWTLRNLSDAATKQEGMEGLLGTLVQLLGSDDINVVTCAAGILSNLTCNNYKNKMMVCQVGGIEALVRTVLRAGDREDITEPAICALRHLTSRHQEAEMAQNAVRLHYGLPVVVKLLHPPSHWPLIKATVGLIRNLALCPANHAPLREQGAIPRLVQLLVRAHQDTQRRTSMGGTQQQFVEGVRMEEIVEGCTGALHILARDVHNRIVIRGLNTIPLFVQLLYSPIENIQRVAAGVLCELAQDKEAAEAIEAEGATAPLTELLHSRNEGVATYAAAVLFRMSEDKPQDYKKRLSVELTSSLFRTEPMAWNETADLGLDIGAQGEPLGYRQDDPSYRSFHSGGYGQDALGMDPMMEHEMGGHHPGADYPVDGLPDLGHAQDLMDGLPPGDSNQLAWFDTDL

Chain of HA-tagged LEF-1 (P27782 whole entry): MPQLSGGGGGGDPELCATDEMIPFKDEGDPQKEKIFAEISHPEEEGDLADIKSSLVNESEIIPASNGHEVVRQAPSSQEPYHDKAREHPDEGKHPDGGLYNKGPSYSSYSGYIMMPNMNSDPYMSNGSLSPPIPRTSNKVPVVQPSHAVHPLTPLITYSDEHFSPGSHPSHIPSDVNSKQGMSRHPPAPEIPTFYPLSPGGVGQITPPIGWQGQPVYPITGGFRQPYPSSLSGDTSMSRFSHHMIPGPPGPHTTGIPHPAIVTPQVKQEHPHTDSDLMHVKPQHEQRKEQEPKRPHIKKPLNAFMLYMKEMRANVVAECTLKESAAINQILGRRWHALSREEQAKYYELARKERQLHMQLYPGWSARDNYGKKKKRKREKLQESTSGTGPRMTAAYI

luciferase activity (TOPFLASH reporter) in CHO cells (HA-tagged LEF-1): ~5 fold
B1: Mouse β-catenin (transfected cDNA) (other, UniProt Q02248 2-781, looked up)
chain: T1 sequence (looked up) with P705A

binding result [1]: binds
B2: HA-tagged chicken α-catenin (other)
chain: TAVTAGNVNFRWDPKSLEIRTLAVERLLEPLVTQVTTLVNTSNKGPSNKKRGRSKKAHVLAASVEQATENFLDKGDKIAKESQFLKEELVAAVEDVRKQGDLMKSASGEFADDPCSSVKRGNMVRAARALLSAVTRLLILADMADVYKLLVQLKVVEEGILKLRNAGTEQDLGIQYKALKPEVDKLNIMAAKRQQELKDVGHRDQMAAARGILQKNVPILYTASQACLQHFDVAAYKANRDLIYKQLQQAVTGISNAAQATASDDAAQQQGGGGELAYALNNFDKQIIVDPSTFSEQRFRPSLEERLESIISGAALMADSSCTRDDRRERIVAECNAVRQALQDLLSEYMGNAGRKERSDALNSAIDKMTKKTRDLRRQLRKAVMDHVSDSFLETNVPLLVLIEAARNGNEKEVKEYTQVFREHANKLIEVANLACSISNNEEGVKLVRMSASQLEALCPQVINAALALAAKPQSKLAQENMELFKEQWEKQVRVLTDAVDDITSIDDFLAVSENHILEDVNKCVIALQEKDVDGLDRTAGAIRGRAARVIHVVTSEMDNYEPGVYTEKVLEATKLLSNTVMPRFTEQVEAAVEALSSDPAQPMDENEFIDRSRLVYDGIRDIRKAVLMIRTPEELDDSDFETEDFDVRSKTSIQTEDDQLIAGQSARAIMAQLPQEQKAKIAEAVASFQEEKSKLDAEVSKWDDSGNDIIVLAKQMCMIMMEMTDFTRGKGPLKNTSDVISAAKKIAEAGSRMDKLGRTIADHCPDSASKQDLLAYLQRIALYCHQLNICSKVKAEVQNLGGELVVSGVDSAMSLIQAAKNLMNAVVQTVKASYVASTKYQKSQGMASLNLPAVSWKMKAPEKKPLVKREKQDETQTKIKRASQKKHVNPVQALSEFKAMESI
notes: also called HA α-catenin; not shown: 16-amino acids hemaglutinin (HA)-tag of the pCGN vector at the NH2-terminus
